Laboratory results from patent US12018081B1, “Photoconjugation reactions for modification of specific proteins on live cells” (The Regents of the University of Colorado, a body, priority 2019, dated 2024).
Each block holds one molecule with its values, some of them ahead of it.

Columns and labels:
[1] = molecular target: Extracellular domain of purified human EGFR (Sino Biological) (human) (UniProt P00533); test: microscale thermophoresis, AF647-labelled soluble EGFR, fusion protein titrated
[2] = molecular target: EGFR expressed on live MDA-MB-468 human breast carcinoma cells (human) (UniProt P00533); test: cell-based or functional assay
[3] = system: MDA-MB-468 cells; format: cell-based, human; details: drug or prodrug only, no protein, FIG. 4
Method: Finally, having established both the photocrosslinking of the […] affibody-enzyme to EGFR on living cells and retention of protein expression before and after endocytosis, the enzymatic activity of the fusion proteins was then leveraged for cell killing by prodrug conversion. […] Next, prodrug therapy experiments were run against MDA-MB-468 cells in vitro. In 96-well plates, cells were incubated with 1 μM of WT-CodA, N23-CodA, or CodA alone. As before, after 3 h the cells were irradiated with 365 nm light for 30 min followed by further incubation to a total time of 8, 24, or 48 h. When each time point was reached, the excess affibody-enzymes were removed by washing the cells three times with PBS, and 2 mM of 5-FC was added. […] After 12 h incubation with 5-FC, excess pro-drug was removed, cells were washed with PBS, and viability was measured by MTT assay. […]
Prodrug Cytotoxicity (MTT) Assays: The MDA-MB-468 cells were grown to confluence, after which the cells were washed once with DPBS (Gibco) and then trypsinized with 0.025% trypsin-EDTA (Gibco). […] The crystals were dissolved in 100 μL isopropyl alcohol (IPA), and absorbance from the wells was measured at 570 nm in a Tecan Safire II Multimode Plate reader. The readings were then normalized to the cells that were treated with neither enzyme, enzyme-affibody, nor 5-FC/5-FU to calculate the fractional viability. […]

[4] = Affibody-enzyme kinetic activity assay with cytosine (UV-Vis); format: biochemical; details: 50 nM enzyme, cytosine 100-250 μM, 50 mM Tris-HCl pH 7.5
Method: Affibody-enzyme Kinetic Activity Assays with Cytosine: The enzymatic assay for N23-CodA, WT-CodA, and CodA were performed by varying substrate concentration and measuring the absorbance using a UV-VIS spectrophotometer (Agilent Technologies, Cary Series 100). A stock of 10 mM cytosine was prepared in 50 mM Tris-HCl at pH 7.5. Varying concentrations (250, 200, 150 and 100 μM) of cytosine solution were prepared from the stock and mixed with 50 nM of the enzyme and enzyme-affibodies. The reaction was run for 15 min with OD267 (cytosine) and OD260 (uracil) readings taken every 12 s. The concentration of cytosine was calculated for each time point and the kinetic parameters KM and kcat were calculated using the methods of initial rates and double reciprocal plots.

[5] = reported value for free CodA; cited from earlier work

Kd [1]: 44 nM
Molecule: BP-modified mutant affibody-enzyme (N23C ZEGFR:1907 affibody with benzophenone, fused to cytosine deaminase) (from UniProt P25524 2-427) (designed binder)
cell viability of MDA-MB-468 cells by MTT assay after 5-FC prodrug [2]: 50 to 55%

Molecule: Nc1nc(=O)[nH]cc1F [5-FC, 5-fluorocytosine]
baseline viability (cell viability fraction) [3]: 0.854

Kd [1]: 25 nM
Molecule: WT affibody-fused CodA (ZEGFR:1907 affibody fused to cytosine deaminase) (from UniProt P25524 2-427) (designed binder)

Molecule: O=c1[nH]cc(F)c(=O)[nH]1 [5-FU, 5-fluorouracil]
baseline viability (cell viability fraction) [3]: 0.467

B1: CodA: Cytosine deaminase, bacterial enzyme of E. coli, alone without affibody (protein, UniProt P25524 2-427, looked up)
Cytosine deaminase: SNNALQTIINARLPGEEGLWQIHLQDGKISAIDAQSGVMPITENSLDAEQGLVIPPFVEPHIHLDTTQTAGQPNWNQSGTLFEGIERWAERKALLTHDDVKQRAWQTLKWQIANGIQHVRTHVDVSDATLTALKAMLEVKQEVAPWIDLQIVAFPQEGILSYPNGEALLEEALRLGADVVGAIPHFEFTREYGVESLHKTFALAQKYDRLIDVHCDEIDDEQSRFVETVAALAHHEGMGARVTASHTTAMHSYNGAYTSRLFRLLKMSGINFVANPLVNIHLQGRFDTYPKRRGITRVKEMLESGINVCFGHDDVFDPWYPLGTANMLQVLHMGLHVCQLMGYGQINDGLNLITHHSARTLNLQDYGIAAGNSANLIILPAENGFDALRRQVPVRYSVRGGKVIASTQPAQTTVYLEQPEAIDYKR
Km [4]: 2520 µM | kcat [4]: 53.57 s⁻¹ | melting temperature, reported value [5]: 85 °C
